According to US20150030599A1 (SAMSUNG ELECTRONICS, published 2015):

Biological target: T1, EGFR-Fc (#344-ER, R&D Systems) (UniProt P00533 25-645)
T1 construct: Bought reagent; not shown: Fc part of the bought fusion protein is not described
Assay: SPR (Biacore T100), ME22S captured on human Fab binder, EGFR-Fc injected
Experimental: In addition, the affinities of the prepared anti-c-Met/anti-EGFR bispecific antibody to the two types of antigens, c-Met and EGFR, were each identified using Biacore T100 (GE). A human Fab binder (GE Healthcare) was immobilized at the surface of a CM5 chip (#BR-1005-30, GE) according to the manufacturer's specifications. […] 10 mM Glycine-HCl (pH 1.5) solution was injected thereto to regenerate the surface. In order to measure affinity, the data obtained from this experiment was fitted using BIAevaluation software (GE Healthcare, Biacore T100 evaluation software).

Kd: 0.49 nM
koff: 9.2e-05 s⁻¹
kon: 190000 M⁻¹ s⁻¹
B1: anti-c-Met/anti-EGFR bispecific antibody ME22S (bispecific antibody)
heavy: EVQLVESGGGLVQPGGSLRLSCAASGFTFTDYYMSWVRQAPGKGLEWLGFIRNKANGYTTEYSASVKGRFTISRDNSKNTLYLQMNSLRAEDTAVYYCARDNWFAYWGQGTLVTVSSASTKGPSVFPLAPCSRSTSESTAALGCLVKDYFPEPVTVSWNSGALTSGVHTFPAVLQSSGLYSLSSVVTVPSSNFGTQTYTCNVDHKPSNTKVDKTVERKCCVECPPCPAPPVAGPSVFLFPPKPKDTLMISRTPEVTCVVVDVSHEDPEVQFNWYVDGVEVHNAKTKPREEQFNSTFRVVSVLTVVHQDWLNGKEYKCKVSNKGLPAPIEKTISKTKGQPREPQVYTLPPSREEMTKNQVSLTCLVKGFYPSDIAVEWESNGQPENNYKTTPPMLDSDGSFFLYSKLTVDKSRWQQGNVFSCSVMHEALHNHYTQKSLSLSPGKGGGGSGGGGSEVQLLESGGGLVQPGGSLRLSCAASGFTFSNYDMSWVRQAPGKCLEWVSGISHSSGSKYYADSVKGRFTISRDNSKNTLYLQMNSLRAEDTAVYYCAKDATPRPLKPFDYWGQGTLVTVSSGGGGSGGGGSGGGGSQSVLTQPPSASGTPGQRVTISCTGSSSNIGNNDVSWYQQLPGTAPKLLIYDDNKRPSGVPDRFSGSKSGTSASLAISGLRSEDEADYYCGSWDASLNAYVFGCGTKLTVLG
light: DIQMTQSPSSLSASVGDRVTITCKSSQSLLASGNQNNYLAWYQQKPGKAPKMLIIWASTRVSGVPSRFSGSGSGTDFTLTISSLQPEDFATYYCQQSYSRPYTFGQGTKVEIKRTVAAPSVFIFPPSDEQLKSGTASVVCLLNNFYPREAKVQWKVDNALQSGNSQESVTEQDSKDSTYSLSSTLTLSKADYEKHKVYACEVTHQGLSSPVTKSFNRGEC
notes: The modified anti-EGFR scFv is fused through (G4S)2 to the C-terminus of the Fc of L3-1Y-IgG2
